In US7064106B2, “Gene and use thereof” (Takeda Chemical Industries, Ltd., priority 1999, dated 2006):

Legend:
[1] = molecular target: T1, IRAP (55–82) (Rattus norvegicus, UniProt P97629); experiment: Yeast two-hybrid quantification assay of β-galactosidase activity (CPRG); assay type: cell-based; conditions: bait IRAP (55–82); prey MD36 cDNA base numbers 2995–3674; S. cerevisiae Y190; CPRG substrate
T1 construct: expressed in transfected cells; host or cells: Saccharomyces cerevisiae Y190
T1 sequence (P97629 55-82 limits assumed): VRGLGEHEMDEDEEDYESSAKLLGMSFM
Procedure: In order to verify the binding of human MD36 to IRAP quantitatively, the β-galactosidase activity was assayed using CPRG (chlorophenol red-β-D-galactopyranoside) as substrate.
Yeast bearing both bait and prey sought to detect the interactions therebetween was subjected to liquid culture. After the cells were recovered, the cell walls were disrupted by freezing/thawing with liquid nitrogen. After CRPG was added to a suspension of the disrupted cells, absorbance of these samples at 578 nm was measured in terms of the β-galactosidase activity. In the unit of β-galactosidase, the enzyme activity that one yeast cell is capable of hydrolyzing 1 μmol of CPRG into chlorophenol red and D-galactoside was made 1 unit. IRAP (55–82) was used as the bait sequence and as the prey sequence, the sequence (679 bp corresponding to the base numbers 2995–3674 in SEQ ID NO:3) directly isolated from human MD36 cDNA sequence by the yeast two-hybrid method was used. In addition, vector pGBT9 that expresses bait sequence-unfused GAL4-BD was used as a negative control. Using plasmids having these sequences, S. Cerevisiae Y190 was transformed and the β-galactosidase activity of the reconstructed yeast transformants was assayed. […] On the other hand, the binding activity was scarcely noted with the protein bearing GAL4-BD alone but no bait sequence (FIG. 19). […]

[2] = molecular target: T2, C-terminal cytoplasmic domain (amino acid numbers 451–492) of mouse GLUT1 (Mus musculus, UniProt P17809); experiment: Yeast two-hybrid β-galactosidase assay, interaction with glucose transporter; assay type: cell-based; conditions: bait mouse GLUT1 (451–492); prey human MD36 cDNA 2995–3674 fused to GAL4-AD
T2 construct: the C-terminal cytoplasmic domain (amino acid numbers 451–492) of mouse GLUT1; expressed in transfected cells; host or cells: Saccharomyces cerevisiae Y190
T2 sequence (P17809 451-492): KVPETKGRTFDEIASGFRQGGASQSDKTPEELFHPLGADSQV
Procedure: As the bait sequence, the C-terminal cytoplasmic domain (amino acid numbers 468–510; SEQ ID NO:13 and SEQ ID NO:14) of mouse GLUT4 was used. For control, similar procedures were performed using the C-terminal cytoplasmic domain (amino acid numbers 451–492) of mouse GLUT1, which is the other protein of glucose transporters. These sequences were isolated from the respective cDNAs by PCR using pfu polymerase (manufactured by Stratagene, Inc.) and constructed to be expressed as the fusion proteins in the GAL4-BD sequence of pGBT9 (manufactured by Clontech, Inc.). On the other hand, human MD36 cDNA (base numbers 2995–3674 in SEQ ID NO:3) fused to GAL4-AD was used as the prey sequence. S. Cerevisiae Y190 was transformed by these plasmids, and the binding activity of MD36 to each of the glucose transporters was assayed in terms of the β-galactosidase activity.

[3] = molecular target: T3, IRAP-His (Rattus norvegicus, UniProt P97629); experiment: Biochemical binding test of human MD36 (EIA plate, anti-Penta-His detection); conditions: IRAP-His 1.0 μg/ml and anti-Penta-His antibody both added to human MD36-coated wells
T3 construct: to construct plasmid pET21-IRAP (1–109); made in house
T3 sequence (P97629 1-109): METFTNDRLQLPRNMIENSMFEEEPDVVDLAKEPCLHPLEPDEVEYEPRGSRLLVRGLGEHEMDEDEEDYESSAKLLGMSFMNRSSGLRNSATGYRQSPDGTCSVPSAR
Description: The C terminal part (partial peptide encoded by the partial base sequence of 2995–3674 from the 5′ end in SEQ ID NO:2) of SEQ ID NO:1 (full-length cDNA of MD36) was used as human MD36. This DNA fragment was inserted into pGEX expression vector (Amersham Pharmacia) to construct expression plasmid pGEX-MD36N4 capable of expressing the human MD36 partial protein in the form fused to GST (glutathione S-transferase) protein (GST-MD36N4 protein) under control of tac promoter. However, the protease recognition site in these junctions was removed by applying PCR. Using pGEX-MD36N4, E. coli BL21 was transformed and the transformants were cultured in LB medium in a conventional manner while inducing expression by IPTG. After culture, the cells collected were disrupted by sonication followed by centrifugation of the cell homogenate. As a result, most of the GST-MD36N4 protein were present in the insoluble fraction. […]
Protein-protein binding test was carried out by the procedure shown below. […] After the wells were again rinsed 3 times with TBS-T, the IRAP-His protein remained in the wells was quantitatively assayed using anti-Penta-His antibody (Qiagen, Inc.). […] IRAP-His (1.0 μg/ml) or anti-Penta-His antibody (diluted to 2000 fold) and both were added to the GST-MD364N-coated or uncoated wells, and after washing with TBS-T, the amount of His-Tag remained in the wells was quantified. […]

B1: MD36: human skeletal muscle-derived IRAP binding protein, SEQ ID NO:1; C-terminal part (bases 2995–3674) used in binding tests (protein, listed as Homo sapiens)
chain: MAGGEDRGDGEPVSVVTVRVQYLEDTDPFACANFPEPRRAPTCSLDGALPLGAQIPAVHRLLGAPLKLEDCALQVSPSGYYLDTELSLEEQREMLEGFYEEISKGRKPTLILRTQLSVRVNAILEKLYSSSGPELRRSLFSLKQIFQEDKDLVPEFVHSEGLSCLIRVGAAADHNYQSYILRALGQLMLFVDGMLGVVAHSDTIQWLYTLCASLSRLVVKTALKLLLVFVEYSENNAPLFIRAVNSVASTTGAPPWANLVSILEEKNGADPELLVYTVTLINKTLAALPDQDSFYDVTDALEQQGMEALVQRHLGTAGTDVDLRTQLVLYENALKLEDGDIEEAPGAGGRRERRKPSSEEGKRSRRSLEGGGCPARAPEPGPTGPASPVGPTSSTGPALLTGPASSPVGPPSGLQASVNLFPTISVAPSADTSSERSIYKLHQTASVWAPESPPVPQSPPGQARLEARFLENVAAAETEKQVALAQGRAETLAGAMPNEAGGHPDARQLWDSPETAPAARTPQSPAPCVLLRAQRSLAPEPKEPLIPASPKAEPIWELPTRAPRLSIGDLDFSDLGEDEDQDMLNVESVEAGKDIPAPSPPLPLLSGVPPPPPLPPPPPIKGPFPPPPPLPLAAPLPHSVPDSSALPTKRKTVKLFWRELKLAGGHGVSASRFGPCATLWASLDPVSVDTARLEHLFESRAKEVLPSKKAGEGRRTMTTVLDPKRSNAINIGLTTLPPVHVIKAALLNFDEFAVSKDGIEKLLTMMPTEEERQKIEEAQLANPDIPLGPAENFLMTLASIGGLAARLQLWAFKLDYDSMEREIAEPLFDLKVGMEQLVQNATFRCILATLLAVGNFLNGSQSSGFELSYLEKVSEVKDTVRRQSLLHHLCSLVLQTRPESSDLYSEIPALTRCAKVDFEQLTENLGQLERRSRAAEESLRSLAKHELAPALRARLTHFLDQCARRVAMLRIVHRRVCNRFHAFLLYLGYTPQAAREVRIMQFCHTLREFALEYRTCRERVLQQQQKQATYRERNKTRGRMITETEKFSGVAGEAPSNPSVPVAVSSGPGRGDADSHASMKSLLTSRPEDTTHNRRSRGMVQSSSPIMPTVGPSTASPEEPPGSSLPSDTSDEIMDLLVQSVTKSSPRALAARERKRSRGNRKSLRRTLKSGLGDDLVQALGLSKGPGLEV
β-galactosidase activity [1]: about 70 units
binding activity of MD36 to glucose transporter in terms of β-galactosidase activity [2]: scarcely bound
amount of His-Tag remained in the wells [3]: markedly detected
